According to the supplement of paper PMC12458215:
± gives the uncertainty stated by the source.

System: HEK293T
Assay: plasma membrane surface immunostaining intensity (anti-HA, deep receptor scanning) (arbitrary fluorescence units); higher = higher plasma membrane expression

## MKSPFYRCQNTTSVEKGNSAVMGGVLFSTGLLGNLLALGLLARSGLGWCSRRPLRPLPSVFYMLVCGLTVTDLLGKCLLSPVVLAAYAQNRSLRVLAPALDNSLCQAFAFFMSFFGLSSTLQLLAMALECWLSLGHPFFYRRHITLRLGALVAPVVSAFSLAFCALPFMGFGKFVQYCPGTWCFIQMVHEEGSLSVLGYSVLYSSLMALLVLATVLCNLGAMRNLYAMHRRLQRHPRSCTRDCAEPRADGREASPQPLEELDHLLLLALMTVLFTMCSLPVIYRAYYGAFKDVKEKNRTSEEAEDLRALRFLSVISIVDPWIFIIFRSPVFRIFFHKIFIRPLRYRSRCSNSTNMESSL [PTGDR]
GPCR class: A
  plasma membrane surface immunostaining intensity: 6000 ± 81

## MKVGVLWLISFFTFTDGHGGFLGKNDGIKTKKELIVNKKKHLGPVEEYQLLLQVTYRDSKEKRDLRNFLKLLKPPLLWSHGLIRIIRAKATTDCNSLNGVLQCTCEDSYTWFPPSCLDPQNCYLHTAGALPSCECHLNNLSQSVNFCERTKIWGTFKINERFTNDLLNSSSAIYSKYANGIEIQLKKAYERIQGFESVQVTQFRNGSIVAGYEVVGSSSASELLSAIEHVAEKAKTALHKLFPLEDGSFRVFGKAQCNDIVFGFGSKDDEYTLPCSSGYRGNITAKCESSGWQVIRETCVLSLLEELNKNFSMIVGNATEAAVSSFVQNLSVIIRQNPSTTVGNLASVVSILSNISSLSLASHFRVSNSTMEDVISIADNILNSASVTNWTVLLREEKYASSRLLETLENISTLVPPTALPLNFSRKFIDWKGIPVNKSQLKRGYSYQIKMCPQNTSIPIRGRVLIGSDQFQRSLPETIISMASLTLGNILPVSKNGNAQVNGPVISTVIQNYSINEVFLFFSKIESNLSQPHCVFWDFSHLQWNDAGCHLVNETQDIVTCQCTHLTSFSILMSPFVPSTIFPVVKWITYVGLGISIGSLILCLIIEALFWKQIKKSQTSHTRRICMVNIALSLLIADVWFIVGATVDTTVNPSGVCTAAVFFTHFFYLSLFFWMLMLGILLAYRIILVFHHMAQHLMMAVGFCLGYGCPLIISVITIAVTQPSNTYKRKDVCWLNWSNGSKPLLAFVVPALAIVAVNFVVVLLVLTKLWRPTVGERLSRDDKATIIRVGKSLLILTPLLGLTWGFGIGTIVDSQNLAWHVIFALLNAFQGFFILCFGILLDSKLRQLLFNKLSALSSWKQTEKQNSSDLSAKPKFSKPFNPLQNKGHYAFSHTGDSSDNIMLTQFVSNE [ADGRF1]
GPCR class: B
  plasma membrane surface immunostaining intensity: 466 ± 27

## MLAAAFADSNSSSMNVSFAHLHFAGGYLPSDSQDWRTIIPALLVAVCLVGFVGNLCVIGILLHNAWKGKPSMIHSLILNLSLADLSLLLFSAPIRATAYSKSVWDLGWFVCKSSDWFIHTCMAAKSLTIVVVAKVCFMYASDPAKQVSIHNYTIWSVLVAIWTVASLLPLPEWFFSTIRHHEGVEMCLVDVPAVAEEFMSMFGKLYPLLAFGLPLFFASFYFWRAYDQCKKRGTKTQNLRNQIRSKQVTVMLLSIAIISALLWLPEWVAWLWVWHLKAAGPAPPQGFIALSQVLMFSISSANPLIFLVMSEEFREGLKGVWKWMITKKPPTVSESQETPAGNSEGLPDKVPSPESPASIPEKEKPSSPSSGKGKTEKAEIPILPDVEQFWHERDTVPSVQDNDPIPWEHEDQETGEGVK [GPR151]
GPCR class: A
  plasma membrane surface immunostaining intensity: 5990 ± 230

## MLESHLIIYFLLAVIQFLLGIFTNGIIVVVNGIDLIKHRKMAPLDLLLSCLAVSRIFLQLFIFYVNVIVIFFIEFIMCSANCAILLFINELELWLATWLGVFYCAKVASVRHPLFIWLKMRISKLVPWMILGSLLYVSMICVFHSKYAGFMVPYFLRKFFSQNATIQKEDTLAIQIFSFVAEFSVPLLIFLFAVLLLIFSLGRHTRQMRNTVAGSRVPGRGAPISALLSILSFLILYFSHCMIKVFLSSLKFHIRRFIFLFFILVIGIYPSGHSLILILGNPKLKQNAKKFLLHSKCCQ [TAS2R1]
GPCR class: Taste
  plasma membrane surface immunostaining intensity: 212 ± 85

## MLGIMAWNATCKNWLAAEAALEKYYLSIFYGIEFVVGVLGNTIVVYGYIFSLKNWNSSNIYLFNLSVSDLAFLCTLPMLIRSYANGNWIYGDVLCISNRYVLHANLYTSILFLTFISIDRYLIIKYPFREHLLQKKEFAILISLAIWVLVTLELLPILPLINPVITDNGTTCNDFASSGDPNYNLIYSMCLTLLGFLIPLFVMCFFYYKIALFLKQRNRQVATALPLEKPLNLVIMAVVIFSVLFTPYHVMRNVRIASRLGSWKQYQCTQVVINSFYIVTRPLAFLNSVINPVFYFLLGDHFRDMLMNQLRHNFKSLTSFSRWAHELLLSFREK [SUCNR1]
GPCR class: A
  plasma membrane surface immunostaining intensity: 528 ± 61
